Molecular target: T1, α2,6-sialylated recombinant human IgG1 Fc (sFc), prepared by papain cleavage of full-length IDEC-114 antibody … (human, UniProt P0DOX5 227-449 = IgG part, limits assumed, N-linked glycan at Asn297 with terminal α2,6-linked sialic acid (in vitro galactosylation and sialylation))
T1 construct: also called α2,6-sFc; α2,6 sFc
Experiment: SPR steady-state affinity, immobilized DC-SIGN ECD
Description: To determine the interaction between various recombinant Fc preparations to soluble hDC-SIGN or hFcγRs, steady-state affinity measurements were recorded on a Biacore T100 sensor. Receptors, diluted to 20-50 μg/mL in NaOAc pH 5.0, were immobilized on CMS chips at high density (2000 RU) by standard amine coupling. For hDC-SIGN interactions, injections were performed at a flow rate of 20 μL/min with commercially available HBS-P+ buffer adjusted to pH 9.0 and supplemented with 2 mM CaCl₂ and 500 mM NaCl. For hFcγRs interactions, injections were performed at a flow rate of 20 μL/min with commercially available HBS-EP+ buffer. Surfaces were regenerated with a short pulse of 50 mM NaOH. Kd values were calculated after subtraction of background binding to a control flow cell using Biacore Evaluation software.

B1: soluble human DC-SIGN extracellular domain with N-terminal strep tag (receptor, UniProt Q9NNX6 59-404, looked up)
chain: QVSKVPSSISQEQSRQDAIYQNLTQLKAAVGELSEKSKLQEIYQELTQLKAAVGELPEKSKLQEIYQELTRLKAAVGELPEKSKLQEIYQELTWLKAAVGELPEKSKMQEIYQELTRLKAAVGELPEKSKQQEIYQELTRLKAAVGELPEKSKQQEIYQELTRLKAAVGELPEKSKQQEIYQELTQLKAAVERLCHPCPWEWTFFQGNCYFMSNSQRNWHDSITACKEVGAQLVVIKSAEEQNFLQLQSSRSNRFTWMGLSDLNQEGTWQWVDGSPLLPSFKQYWNRGEPNNVGEEDCAEFSGNGWNDDKCNLAKFWICKKSAASCSRDEEQFLSPAPATPNPPPA
notes: extracellular domain; also called DC-SIGN ECD; soluble hDC-SIGN; not shown: N-terminal strep tag
  Kd: ~1300 nM

From patent US20140377280A1 (ROCKEFELLER UNIVERSITY, published 2014)
